Legend:
Details in all cases: reference: unphosphorylated MAP2c; sites Y67
[1] = target: Grb2 (growth factor receptor-bound protein 2) SH2 domain, 57-158 (UniProt P62993); test: NMR HNCO peak broadening of labeled MAP2c
[2] = target: Grb2 (growth factor receptor-bound protein 2) SH2 domain, 57-158 (UniProt P62993); test: 1H,15N HSQC titration of 15N-Grb2-SH2 with MAP2c
[3] = target: Grb2 (growth factor receptor-bound protein 2) SH2 domain, 57-158 (UniProt P62993); test: NMR HNCO chemical shift perturbation of MAP2c

- binding against the reference [1]: stronger
- KD [2]: gained; reference No significant CCSP
- binding against the reference [3]: gained
Substance: MAP2c (microtubule-associated protein 2c) (from UniProt P15146) Fyn-phosphorylated MAP2c
